From paper PMC3938326

Target: T1, hPh1 FCS domain (Polyhomeotic homolog 1) (human, UniProt P78364 783-828)
T1 chain: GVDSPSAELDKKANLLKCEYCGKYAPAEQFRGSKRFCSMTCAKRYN
Experiment: NMR HSQC titration

With GGGCACGCGUAUUGCCCUAGUGGCCGGCGUGCCC (structured_RNA) [34nt RNA] the Kd was 3000 ± 1100 µM.
